Earlier results on one substance are cited in paper PMC9739296.

In the series the target is DR4 (Homo sapiens) (UniProt O00220).
Sequence of UniProt O00220 (O00220 24-468): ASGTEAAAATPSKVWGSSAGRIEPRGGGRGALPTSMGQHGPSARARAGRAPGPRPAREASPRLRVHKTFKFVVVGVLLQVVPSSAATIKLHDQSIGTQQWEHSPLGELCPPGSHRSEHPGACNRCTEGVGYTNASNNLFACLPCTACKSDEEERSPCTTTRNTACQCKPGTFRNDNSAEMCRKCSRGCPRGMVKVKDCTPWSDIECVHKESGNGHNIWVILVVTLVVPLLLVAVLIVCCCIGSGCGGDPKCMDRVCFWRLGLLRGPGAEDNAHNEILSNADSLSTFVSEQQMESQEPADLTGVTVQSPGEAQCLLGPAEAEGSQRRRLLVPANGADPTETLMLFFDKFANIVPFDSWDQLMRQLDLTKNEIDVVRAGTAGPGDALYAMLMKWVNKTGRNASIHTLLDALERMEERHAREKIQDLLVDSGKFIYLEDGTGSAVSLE

A word on the Kd: it is the concentration at which binding is half-saturated. With TRAIL (from UniProt P50591), the dissociation constant (Kd) was 70 nM.
